Results published in patent US8278415B2, “Dimeric high affinity EGFR constructs and uses thereof” (Centocor, Inc., priority 2006, dated 2012).
Values after ≈ are worked out from the molar mass of the structure shown. Read-outs that look alike come from different tables or passages of the source.

Legend:
A431 cells = experiment: Flow cytometry of phage binding to A431 cells; assay type: cell-based, human; details: for binding to A431 tumor cells: anti-phage-FITC
Experimental: (§1) To evaluate whether the selected peptides from phage display can bind to tumor cells that overexpress EGFR, A431 cells (epidermoid cancer) or an EGFR negative tumor cells, MCF-7 (breast carcinoma) were tested in a flow cytometry assay using fluorescence detection (FACS). For P145, PP146 and their control phage, 2.5×10^5 A431 cells were resuspended in 25 μl of flow staining buffer (dPBS with 1% BSA, 0.09% sodium azide) and incubated with 25 μl of phage clones for 1 hour at 4° C. […] Cells were washed two times with flow staining buffer and then incubated with 0.5 μg of mouse anti M13/fd/Fl filamentous phages monoclonal antibody conjugated to FITC (Fitzgerald Industries International, Inc. Concord, Mass.) for 45 minutes at 4° C. Cells were washed two times with flow staining buffer and acquired by FACSCalibur (BD, Franklin Lakes, N.J.) to detect bound phages on tumor cell surface.
A431 cells (epidermoid cancer) which overexpress EGFR and EGFR-negative tumor cells, MCF-7 (breast carcinoma) were tested in a flow cytometry assay. Tumor cells (A431 and MCF-7) were harvested with 0.25% tyrpsin-EDTA and washed twice with FACS staining buffer (dPBS with 1% BSA, 0.09% sodium azide). […] After binding at 4° C., cells were washed twice with FACS staining buffer to remove unbound phage and then incubated with 0.5 μg of mouse anti-M13 monoclonal antibody conjugated to FITC (Fitzgerald Industries International, Inc. Concord, Mass.) for 1 hour at 4° C. Mouse anti-M13-FITC incubated with cells without phage was used as background binding. Cells were washed twice with FACS staining buffer to remove unbound detection antibody.

sEGFR-MMB [1] = molecular target: T1, sEGFR-MMB (Homo sapiens, UniProt P00533); experiment: Phage ELISA on coated sEGFR-MMB; assay type: binding
T1 construct: made in house; host or cells: HEK 293E
Experimental: (§2) The protein solution was removed and wells were rinsed twice with Tris-Buffered Saline containing 0.05% Tween-20 (TBS-T) using a plate washer (Embla). The wells were blocked with Starting Block in TBS for 1 hr at room temperature and rinsed twice with TBS-T. An equal volume of phage supernatant and Starting Block in TBS were incubated in the wells for 1 hr at room temperature, and the wells were rinsed five times with TBS-T. Anti-M13/horseradish peroxidase conjugate (Amersham), diluted 1:5000 in Starting Block in TBS, was added into the wells and incubated for 1 hour at room temperature, and then the wells were rinsed five times with TBS-T. Finally, chemiluminescent peroxidase substrate (Roche) was added to the wells, and chemiluminescence was measured on a Tecan plate reader.
(§3) Phage were amplified in XL-1 Blue host cells and purified by precipitation with 6% polyethylene glycol-8000/0.5 M sodium chloride. The precipitated phage were resuspended in phosphate-buffered saline in a volume that was 1/100th the original culture volume. […] The binding reaction was incubated for 1 hr at room temperature, and then bound phage were detected with anti-M13/HRP as above. For ELISAs with biotinylated receptors, streptavidin at 5 μg/ml was coated in the wells overnight at 4° C. […] The wells were rinsed with TBS-T and then blocked with Starting Block. Bound phage were washed and detected with anti-M13/HRP as described above.
(§4) The plates were held overnight at room temperature, washed twice with TBST (0.5M Tris Base, 9% NaCl, 0.05% tween, pH 7.6), and loaded with 200 μL per well of Starting Block (Pierce). […] The plates were held at room temperature for 1.5 hours for blocking Plates were then washed twice with TBST and phage were added. The phage solutions were crude phage supernatant from overnight cultures diluted four-fold with Starting Block. After a one-hour incubation, the plates were washed thrice with TBST and 100 μL of a 1:5000 dilution of phage binding antibody conjugate (α-M13-HRP) was added to the wells. EGF was added if applicable. After a one-hour incubation the plates were washed five times with TBST, 100 μL of POD (BM Chemiluminescence ELISA substrate; Roche Applied Science) was added, and chemiluminescene recorded.

b-sEGFR-MMB = molecular target: T2, b-sEGFR-MMB (Homo sapiens, UniProt P00533); experiment: Phage ELISA on biotinylated sEGFR-MMB captured on streptavidin; assay type: binding
T2 construct: made in house; host or cells: HEK 293E
Experimental: as §3

MDA-MB-468 = experiment: cells; details: Homo sapiens
b-sEGFR-His = molecular target: T3, b-sEGFR-His (Homo sapiens, UniProt P00533); experiment: Phage ELISA on biotinylated sEGFR-His6 captured on streptavidin; assay type: binding; details: biotinylated and immobilized on streptavidin
T3 construct: made in house; host or cells: HEK293E
Experimental: as §3

sEGFR-MMB [2] = molecular target: T1, sEGFR-MMB; experiment: Competitive phage ELISA (EGF, TGF-α, IMC-c225 as competitive agent); assay type: binding
Experimental: as §3

EGF + sEGFR-MMB Complex = molecular target: T4, EGF + sEGFR-MMB Complex (Homo sapiens, UniProt P00533); experiment: Phage ELISA on sEGFR-MMB in the presence of EGF; assay type: binding
T4 construct: made in house
Experimental: as §4

sEGFR-His6 = molecular target: T5, sEGFR-His6 (Homo sapiens, UniProt P00533); experiment: Phage ELISA on coated sEGFR-His6; assay type: binding
T5 construct: made in house; host or cells: HEK293E
Experimental: as §4

Control-MMB = Control-MMB (Homo sapiens, UniProt P01857); experiment: Phage ELISA on Control-MMB; assay type: binding
Experimental: as §2
The plates were held overnight at room temperature, washed twice with TBST (0.5M Tris Base, 9% NaCl, 0.05% tween, pH 7.6), and loaded with 200 μL per well of Starting Block (Pierce). […] The plates were held at room temperature for 1.5 hours for blocking Plates were then washed twice with TBST and phage were added. […] After a one-hour incubation the plates were washed five times with TBST, 100 μL of POD (BM Chemiluminescence ELISA substrate; Roche Applied Science) was added, and chemiluminescene recorded.

MCF-7 = experiment: Flow cytometry of phage binding to MCF-7 cells; assay type: cell-based, human
Experimental: as §1
A431 cells (epidermoid cancer) which overexpress EGFR and EGFR-negative tumor cells, MCF-7 (breast carcinoma) were tested in a flow cytometry assay. Tumor cells (A431 and MCF-7) were harvested with 0.25% tyrpsin-EDTA and washed twice with FACS staining buffer (dPBS with 1% BSA, 0.09% sodium azide). […]

| binding to sEGFR-MMB (in words) (sEGFR-MMB [1]) | binding to sEGFR-His6 (in words) (b-sEGFR-His) | Compound | binding to A431 relative to positive control EGF phage (A431 cells) | binding to A431 tumor cells (A431 cells) | competition with EGF, TGF-α, IMC-c225 (in words) (sEGFR-MMB [2]) | also measured |
| --- | --- | --- | --- | --- | --- | --- |
|  |  | TLCRSFFHPLCYA (Random peptide) [P146] | weaker than that exhibited by a positive control phage that displayed EGF on pIII | displayed binding to A431 tumor cells |  |  |
|  |  | COc1cccc2c1C(=O)c1c(O)c3c(c(O)c1C2=O)C[C@@](O)(C(=O)CO)C[C@@H]3O[C@H]1C[C@H](N)[C@H](O)[C@H](C)O1 [Doxorubicin] |  |  |  | IC50 (MDA-MB-468; MDA-MB-468, read-out: IC50 D4): 2.5 µg/mL (≈ 4.6 µM); IC50 (MDA-MB-468; MDA-MB-468, read-out: IC50 D6): < 1.6 µg/mL |
| bound sEGFR-MMB | not sEGFR-His6 | LPDDSLPELICKVRG (Random peptide) [P175] |  |  | did not compete with EGFR ligands |  |
|  |  | VLCHRYYHPICYT [P145] | weaker than that exhibited by a positive control phage that displayed EGF on pIII | displayed binding to A431 tumor cells |  |  |
| bound both sEGFR-MMB and sEGFR-His6 | bound both sEGFR-MMB and sEGFR-His6 | SGCLDALWQCVY (Random peptide) [P174] | comparable to that by a positive control phage that displayed EGF on pIX | displayed binding to A431 tumor cells | not inhibited by the EGFR ligands tested |  |
| bound both sEGFR-MMB and sEGFR-His6 | bound both sEGFR-MMB and sEGFR-His6 | KTCVSTTFDLWFVCFA (Random peptide) [P176] | comparable to that by a positive control phage that displayed EGF on pIX | displayed binding to A431 tumor cells | competitive with IMC-c225 (cetuximab), EGF, and TGF-α |  |

| Compound | binding to sEGFR-MMB (in words) (sEGFR-MMB [1]) | binding to sEGFR-His6 (in words) (b-sEGFR-His) | binding to A431 relative to positive control EGF phage (A431 cells) | binding to A431 tumor cells (A431 cells) | competition with EGF, TGF-α, IMC-c225 (in words) (sEGFR-MMB [2]) | also measured |
| --- | --- | --- | --- | --- | --- | --- |
| GPCVLIRDYYLLCLE (Random peptide) [P179] | bound sEGFR-MMB when it was passively immobilized in ELISA wells |  |  |  |  | binding to biotinylated sEGFR-MMB captured on streptavidin (in words) (b-sEGFR-MMB): not biotinylated sEGFR-MMB that had been captured on streptavidin |
| DPCTWEVWGRECLQ [P190] | binds weakly |  |  | bind to A431 | did not compete with EGF or TGF-alpha | Relative Signal (sEGFR-MMB [1]; construct SEGFR-MMB): 3937 ± 335; binding to dimeric EGFR in the presence of EGF or TGF-a (EGF + sEGFR-MMB Complex; pIX display): increased in the presence of EGF or TGF-a; binding to the complex between EGF and sEGFR-MMB (in words) (EGF + sEGFR-MMB Complex; phage ELISA): binds well; Relative Signal (EGF + sEGFR-MMB Complex; phage ELISA, construct SEGFR-MMB + EGF): 29408 ± 259; binding to sEGFR-His6 (in words) (sEGFR-His6; coated monomeric sEGFR): virtually no binding; Relative Signal (sEGFR-His6; construct sEGFR-His6): 6; binding to Control-MMB (in words) (Control-MMB): fails to bind; binding to A431 cells in the presence of EGF (A431 cells): increased; binding to A431 cells in the presence of EGF and cetuximab (A431 cells): decreases; binding to MCF-7 (MCF-7): not to MCF-7 |
